The chains are these.
B1: mouse TIM-3 Fc protein (R&D systems) (Fc fusion, UniProt Q8VIM0 20-191, looked up)
chain: RSLENAYVFEVGKNAYLPCSYTLSTPGALVPMCWGKGFCPWSQCTNELLRTDERNVTYQKSSRYQLKGDLNKGDVSLIIKNVTLDDHGTYCCRIQFPGLMNDKKLELKLDIKAAKVTPAQTAHGDSTTASPRTLTTERNGSETQTLVTLHNNNGTKISTWADEIKDSGETIR
notes: Bought; also called mTIM-3 Fc; mTIM-3-Fc; not shown: Fc

Test [1] concerns the target mouse Gal3 (endogenous, on B16F10 tumor cells and RAW264.7 macrophages) (mouse) (UniProt P16110). Nature of the test: flow cytometry on B16F10 cells, rat anti mouse Gal3 PE against control rat IgG PE.
The target in test [2] is human Gal9 protein (R&D systems) (human) (UniProt O00182). The experiment in a line: ELISA: plate coated with hGal9, mTIM-3 Fc with or without 25 mM alpha-lactose.
For test [3], the target named is T1, Flag-tagged human Gal3 protein stably expressed on A20 cells (A20 Gal3 cells) (human, UniProt P17931 2-250).
T1 construct: Mouse B lymphoma A20 cells transfected with a construct encoding Flag-tagged human Gal3; also called A20 cells overexpressing human Gal3; hGal3; not shown: Flag tag
The experiment in a line: flow cytometry: mTIM-3 Fc on live A20 Gal3 cells, anti-hFc APC detection (FIG. 4B, row 2). The protocol:
Flow cytometry analysis was performed to evaluate the binding between TIM-3 and Gal3 using A20 cells. A20 Gal3 cells were incubated with 10% FBS HBSS solution that contains with or without mouse TIM-3 Fc on ice for 20 minutes. There are five experimental groups: in group 1, A20 Gal3 cells were incubated without mTIM-3 Fc protein as control; in group 2, A20 Gal3 cells were incubated with mTIM-3 Fc protein; in groups 3, 4, 5, in addition to mTIM-3 Fc protein, anti-mouse TIM-3 polyclonal antibody (R&D System, Minneapolis, Minn.) (group 3), monoclonal antibody RMT3-23 (Bio X cell, West Lebanon, N.H.) (group 4), monoclonal antibody 215015 (R&D Systems) (group 5), were also added to test if these antibodies could block Gal3 and Tim3 binding. For blocking, cells were incubated with 10% FBS HBSS containing mentioned antibodies, then were added with 10% FBS HBSS containing mTIM-3 Fc for 20 min. Samples were centrifuged and pellet were added 10% FBS HBSS containing APC conjugated anti-hFc antibodies (Jackson ImmunoResearch, West Grove, Pa.) for 20 min. After spinning, live/dead cells were stained with Violet dead cell stain kit (Life Technologies). Stained cells were subjected to flow analysis.

Test [4] addresses B1. Nature of the test: ELISA: plate coated with mGal3 at 10 ug/ml, mTIM-3 Fc (FIGS. 5A-5C). The procedure:
In FIG. 5A, different anti Gal3 antibodies, i.e. mGal3 polyclonal antibody (R&D sytems), mAb IMT001, mAb M3/38 (Thermofisher Scientific) (FIG. 5A), were added to well that has been coated with Gal3. The antibodies were incubated for 10 minutes and mouse TIM-3 Fc were then added to the plates and incubated for an additional one-hour incubation. Plates were then washed for three times and followed by incubation with anti human-IgG-HRP (Jackson ImmunoResearch) for 1 h at room temperature. The color was developed with TMB subtract (GeneTex, Irvine, Calif.) after three time washes with TBST and the reaction was terminated with 1N HCl. The optical density (OD) was read at 450 nm. The results were expressed as the average OD of duplicates±SD.
In FIG. 5B, mouse Gal3 protein (BioLegend) in PBS (groups 1 and 2) or PS (Sigma-Aldrich, St. Louis, Mo.) in ethanol (groups 3 and 4) were coated on the plates and incubated at 4° C. overnight. Anti mTIM-3 mouse antibodies, mAb RMT3-23 (Bio X cell), was added to the coated plates for groups 2 and 4 only. Secondary anti human-IgG-HRP antibody and substrates were added as described above to detect the binding of the mTIM-3 to mGal3 or PS. […]

T1 sequence (P17931 2-250): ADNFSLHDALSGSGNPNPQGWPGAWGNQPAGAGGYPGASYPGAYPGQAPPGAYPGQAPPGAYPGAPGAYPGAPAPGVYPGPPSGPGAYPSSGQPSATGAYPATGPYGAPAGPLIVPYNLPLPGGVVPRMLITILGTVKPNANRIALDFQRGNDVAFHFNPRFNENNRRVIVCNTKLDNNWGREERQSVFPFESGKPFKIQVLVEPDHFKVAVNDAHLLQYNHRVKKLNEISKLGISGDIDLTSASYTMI
human Gal9 protein (R&D systems) (human), sequence (O00182 other isoform, or with tags, fused parts or gaps limits assumed): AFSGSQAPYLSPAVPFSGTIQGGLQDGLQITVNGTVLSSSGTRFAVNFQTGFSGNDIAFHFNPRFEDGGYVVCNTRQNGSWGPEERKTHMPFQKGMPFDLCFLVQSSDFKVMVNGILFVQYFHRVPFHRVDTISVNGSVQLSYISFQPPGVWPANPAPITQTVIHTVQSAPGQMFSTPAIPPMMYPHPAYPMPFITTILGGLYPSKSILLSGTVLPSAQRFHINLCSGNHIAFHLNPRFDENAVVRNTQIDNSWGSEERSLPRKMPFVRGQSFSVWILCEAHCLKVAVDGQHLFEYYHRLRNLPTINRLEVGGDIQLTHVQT

In the case of “rat anti mouse Gal3 PE antibody (Thermo Fisher Scientific)”, the fold of MFI over isotype control antibody in test [1] is 10 fold.
On to B1, for which, in test [2], the fold reduction in ELISA signal with 25 mM alpha-lactose against no lactose is more than 10 fold. Moreover, the binding result in test [3] is recorded as “binds”.

B2: mouse Gal3 protein (BioLegend) (ligand)
chain: ADSFSLNDALAGSGNPNPQGYPGAWGNQPGAGGYPGAAYPGAYPGQAPPGAYPGQAPPGAYPGQAPPSAYPGPTAPGAYPGPTAPGAYPGSTAPGAFPGQPGAPGAYPSAPGGYPAAGPYGVPAGPLTVPYDLPLPGGVMPRMLITIMGTVKPNANRIVLDFRRGNDVAFHFNPRFNENNRRVIVCNTKQDNNWGKEERQSAFPFESGKPFKIQVLVEADHFKVAVNDAHLLQYNHRMKNLREISQLGISGDITLTSANHAMI
notes: Bought recombinant protein coated on ELISA plates; also called mGal3
For B2, the binding result in test [4] is “binds”.

Source of the values: US20200223921A1 (TRUEBINDING, published 2020).
